Data reported in IntAct's records for PubMed 16606821.

B1: Insulin-induced gene 1 protein (Homo sapiens), O15503-1 (parent)
chain: MPRLHDHFWSCSCAHSARRRGPPRASAAGLAAKVGEMINVSVSGPSLLAAHGAPDADPAPRGRSAAMSGPEPGSPYPNTWHHRLLQRSLVLFSVGVVLALVLNLLQIQRNVTLFPEEVIATIFSSAWWVPPCCGTAAAVVGLLYPCIDSHLGEPHKFKREWASVMRCIAVFVGINHASAKLDFANNVQLSLTLAALSLGLWWTFDRSRSGLGLGITIAFLATLITQFLVYNGVYQYTSPDFLYIRSWLPCIFFSGGVTVGNIGRQLAMGVPEKPHSD
partner: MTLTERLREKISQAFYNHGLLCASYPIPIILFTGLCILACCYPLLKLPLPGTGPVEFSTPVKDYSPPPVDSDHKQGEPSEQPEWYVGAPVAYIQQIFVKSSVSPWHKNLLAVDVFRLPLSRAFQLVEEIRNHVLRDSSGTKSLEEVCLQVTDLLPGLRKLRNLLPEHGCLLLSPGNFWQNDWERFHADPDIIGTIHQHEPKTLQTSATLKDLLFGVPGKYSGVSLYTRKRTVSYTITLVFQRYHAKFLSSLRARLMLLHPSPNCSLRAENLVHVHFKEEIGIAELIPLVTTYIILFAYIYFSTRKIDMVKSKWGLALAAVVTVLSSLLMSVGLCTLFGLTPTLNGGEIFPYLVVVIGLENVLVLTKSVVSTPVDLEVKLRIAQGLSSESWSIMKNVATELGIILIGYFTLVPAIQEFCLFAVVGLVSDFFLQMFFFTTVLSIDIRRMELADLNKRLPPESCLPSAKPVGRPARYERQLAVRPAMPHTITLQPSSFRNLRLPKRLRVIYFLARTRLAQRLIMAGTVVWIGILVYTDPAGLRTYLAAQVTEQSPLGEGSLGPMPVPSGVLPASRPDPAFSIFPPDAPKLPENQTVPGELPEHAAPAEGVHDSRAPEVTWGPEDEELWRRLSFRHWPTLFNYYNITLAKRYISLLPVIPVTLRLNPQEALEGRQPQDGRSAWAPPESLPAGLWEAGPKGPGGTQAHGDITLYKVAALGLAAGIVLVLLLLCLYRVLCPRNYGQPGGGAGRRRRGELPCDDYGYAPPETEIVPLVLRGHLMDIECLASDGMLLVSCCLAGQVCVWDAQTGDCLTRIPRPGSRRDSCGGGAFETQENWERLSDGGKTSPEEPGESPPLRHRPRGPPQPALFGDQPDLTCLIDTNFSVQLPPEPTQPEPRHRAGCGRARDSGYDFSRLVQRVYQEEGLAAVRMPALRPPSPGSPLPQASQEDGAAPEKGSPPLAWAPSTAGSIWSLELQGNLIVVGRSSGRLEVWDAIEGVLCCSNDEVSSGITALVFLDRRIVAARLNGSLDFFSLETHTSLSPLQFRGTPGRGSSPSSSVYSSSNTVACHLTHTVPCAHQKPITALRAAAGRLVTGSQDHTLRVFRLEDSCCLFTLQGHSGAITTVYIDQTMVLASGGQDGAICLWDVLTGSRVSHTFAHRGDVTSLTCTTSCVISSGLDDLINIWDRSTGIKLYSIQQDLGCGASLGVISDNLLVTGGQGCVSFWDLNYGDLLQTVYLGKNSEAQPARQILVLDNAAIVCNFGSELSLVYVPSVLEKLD

Variants of: B1
Conditions: with scap_crigr SCAP

effect of a mutation on the interaction	Variant
disrupting interaction strength	D205A
